This is an account of results in the RNAGym collection of RNA variant scans (doi:10.7554/elife.80360).

To fix the notation:
B1: CPEB3 Ribozyme (parent)
chain: GGGGGCCACAGCAGAAGCGUUCACGUCGCGGCCCCUGUCAGAUUCUGGUGAAUCUGCGAAUUCUGCUGU

The variants in the data set derive from B1. The experiment in a line: self-cleavage, relative activity (ratio to wild type); higher = more cleavage; co-transcriptional.
Take G19C G30U: the self-cleavage was 0.157.
As for G19A A59U, the self-cleavage was 0.169.
As for G19U U53C, the self-cleavage turned out to be 0.242.
The result for G19U U53G reads 0.252; that for G19U U53A, 0.273.
The figure for G19A A42C is 0.13; for G19A A42G it is 0.166; for C18U U20G it is 0.28.
On to C18U C35U, for which the self-cleavage was 0.687.
The figure for G19U C32U is 0.55.
The result for G19A U43C reads 0.116.
For G19A U43A, the self-cleavage was determined as 0.108.
The result for C18U U67G reads 0.922.
Take G19C A23G: the self-cleavage was found to be 0.11.
For the variant G19A U44C, the self-cleavage amounted to 0.16.
The result for C18G U67G reads 0.229; that for G19U C57A, 0.224.
Regarding C18G C54U, the self-cleavage is 0.15.
For C18G C54G, the self-cleavage came to 0.0613.
Consider C18A U20A, for which the self-cleavage came out at 0.193.
Take C18A U20G: the self-cleavage was determined as 0.0591.
As for C18A U44C, the self-cleavage was found to be 0.106.
The figure for C18U C24U is 0.4.
The result for C18A G37C reads 0.213.
Turning to U20A C24G, the self-cleavage is 0.0902.
Take G19U G56U: the self-cleavage was found to be 0.281.
As to G19C A51U, the self-cleavage amounted to 0.157.
The result for G19C A51G reads 0.182; that for C18U A60C, 0.288; that for C18U A60U, 0.318.
C18G A52G: the self-cleavage is 0.244.
The figure for C18G A52C is 0.181.
The figure for G19C U62A is 0.107.
Take G19C U62C: the self-cleavage was 0.123.
The figure for G19A A40G is 0.17.
As for G19C U53C, the self-cleavage was determined as 0.0977.
The result for G19A G48C reads 0.188; that for G19A U61G, 0.164.
For G19A C45A, the self-cleavage worked out at 0.121.
For the variant G19A C45U, the self-cleavage came out at 0.167.
The figure for G19A G56U is 0.155.
The result for C18U C57U reads 0.3; that for C18G C22U, 0.192.
The figure for G19A U38G is 0.156; for C18U C34G it is 0.426; for C18U C34U it is 0.919.
In the case of G19C C33A, the self-cleavage was 0.196.
The result for U20A C54A reads 0.125; that for U20A C33U, 0.2.
Consider U20A C33G, for which the self-cleavage turned out to be 0.192.
U20A C33A: the self-cleavage came to 0.166.
The result for C18G G56C reads 0.101.
The figure for C18G G56A is 0.107.
The result for G19U G68A reads 0.793; that for C18A C35A, 0.155; that for G19U G47A, 0.655.
Consider G19U G47C, for which the self-cleavage came out at 0.677.
The figure for C18A U38G is 0.212; for C18G U61A it is 0.223.
Take C18G A42C: the self-cleavage turned out to be 0.124.
The result for C18A U26G reads 0.118; that for C18A U26C, 0.17.
C18A U64C: the self-cleavage is 0.14.
Regarding C18A U64A, the self-cleavage was determined as 0.108.
On to G19U A51C, for which the self-cleavage is 0.432.
As to U20A U21A, the self-cleavage came to 0.219.
For the variant U20A U21G, the self-cleavage was found to be 0.2.
On to G19A U20A, for which the self-cleavage stood at 0.145.
For the variant G19A U20C, the self-cleavage was determined as 0.166.
In the case of C18G G50C, the self-cleavage amounted to 0.201.
The result for C18U U55G reads 0.39.
Consider C18U C39G, for which the self-cleavage was found to be 0.491.
C18U U26A: the self-cleavage is 0.669.
The figure for G19U U49A is 0.639.
The figure for G19A G47A is 0.122; for G19A G47U it is 0.12.
The figure for U20A U43A is 0.152.
For U20A U49G, the self-cleavage came to 0.199.
U20A U49C: the self-cleavage is 0.275.
The figure for G19C A60U is 0.128; for G19C A60G it is 0.119.
The result for G19C C29U reads 0.112; that for U20A A23G, 0.041.
On to U20A A23U, for which the self-cleavage was found to be 0.192.
Consider U20A G47U, for which the self-cleavage was 0.179.
For U20A G47C, the self-cleavage stood at 0.261.
In the case of C18G U38A, the self-cleavage was 0.158.
Regarding G19U U69G, the self-cleavage stood at 0.819.
The result for C18G C66U reads 0.215; that for C18G C66G, 0.0954.
The figure for C18G A23G is 0.0901; for C18G A23U it is 0.22.
The figure for G19C U46G is 0.122; for G19U A59C it is 0.131.
Take C18U G58C: the self-cleavage worked out at 0.852.
For C18U A59U, the self-cleavage is 0.445.
The figure for C18U A59C is 0.32.
The result for C18G C63G reads 0.104; that for G19A C22A, 0.104.
The figure for G19C C27A is 0.135; for G19C C57U it is 0.146.
In the case of C18A U55C, the self-cleavage was 0.21.
On to C18U A40U, for which the self-cleavage was 0.378.
Turning to C18U A40G, the self-cleavage came out at 0.742.
The result for C18A U46C reads 0.228.
For the variant C18U C45U, the self-cleavage is 0.877.
Take C18U C45G: the self-cleavage was 0.778.
As to C18A U36G, the self-cleavage was 0.145.
For the variant C18U C32G, the self-cleavage was 0.213.
Consider G19U G28C, for which the self-cleavage was 0.125.
The figure for U20A A60U is 0.117; for G19C G48C it is 0.169; for G19C G48A it is 0.189.
G19C G48U: the self-cleavage was found to be 0.141.
The result for C18G G37A reads 0.119; that for U20A G48U, 0.104.
The figure for U20A G48C is 0.117; for G19A U36C it is 0.161.
The result for U20A A42U reads 0.133; that for G19U G50U, 0.509; that for G19U C29U, 0.117.
Consider C18A G56A, for which the self-cleavage came to 0.156.
The figure for C18A G56U is 0.133; for G19A C34G it is 0.181; for G19C C32G it is 0.207.
Take C18U A42U: the self-cleavage was 0.687.
On to C18U U62G, for which the self-cleavage stood at 0.494.
On to U20A U26A, for which the self-cleavage came out at 0.0885.
The result for G19U U38C reads 0.252.
The figure for C18A U61C is 0.158; for G19A C29A it is 0.159.
The figure for G19U U44C is 0.232.
Take G19A C39G: the self-cleavage came out at 0.149.
For the variant C18U G50C, the self-cleavage amounted to 0.803.
The figure for C18U G50U is 0.906; for G19A U26G it is 0.19; for G19A U26C it is 0.0939.
Consider C18G C57G, for which the self-cleavage is 0.17.
As to C18G U62G, the self-cleavage is 0.173.
For G19U C45A, the self-cleavage came out at 0.459.
The figure for U20C A51C is 0.259.
The result for G19A C35U reads 0.188; that for G19A C35A, 0.181.
C18G A59C: the self-cleavage is 0.149.
The result for G19U U36A reads 0.164; that for G19U U36C, 0.212.
The result for G19C C22U reads 0.158.
The result for G19A G68A reads 0.18.
Take G19A G68C: the self-cleavage was 0.209.
Consider C18U G28C, for which the self-cleavage was found to be 0.174.
On to C18U G28U, for which the self-cleavage stood at 0.206.
The result for G19U C63U reads 0.318.
The result for G19U C63G reads 0.249; that for G19A U21G, 0.14; that for G19A U21A, 0.143.
Regarding G19A U21C, the self-cleavage was found to be 0.164.
As for C18G A40G, the self-cleavage amounted to 0.122.
The figure for G19U C34G is 0.232; for G19U C34A it is 0.195.
The figure for G19U C34U is 0.545.
Turning to C18G U49A, the self-cleavage is 0.259.
G19C U49A: the self-cleavage came to 0.178.
The result for C18G U21A reads 0.217; that for U20A G37U, 0.169.
The result for G19U C35A reads 0.119; that for G19U C35U, 0.262; that for C18U U69A, 0.944.
